The values that follow come from the supplement of paper PMC11865577.

Common to all, as to test: pull-down binding Z-score (relative to library population); higher = stronger binding
Holding throughout (details): RNA library: Library-2

Data set [1] relates to TO-3-N3 (biotin conjugate). Put shortly:
(§1)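 An RNA library (1 μg) carrying a Cy5 or Cy3 end label was heat-folded in phosphate/NaCl/KCl buffer, then incubated for 60 min at 25 °C with streptavidin beads loaded with 100 pmol of biotin-conjugated small molecule. The beads were washed three times, and bound RNA was released in hot SDS and hybridised to a DNA barcode microarray for 20 h at 55.5 °C. Each binding score was derived by subtracting the signal from beads without compound, averaging the barcoded replicate probes after removing the highest and lowest, and expressing the result as a Z-score relative to the library mean and standard deviation.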

The test system of data set [2] is TO-N3-2 (biotin conjugate). The essentials: as §1
Data set [3] has as its system TO-3-N3-2 (biotin conjugate). Put shortly:
as §1

The next data set concerns TO-N3 (biotin conjugate). Put shortly: as §1

Regarding “CAAGGACCUGCCUAAAGAAAUCACUGUUGCUACAUCACGAACGCUUUCUUAUUACAAAUUGGGAGCUUCGCAGCGUGUAGCAGGUGACUCAGGUUUUG [DMSMaPseq_invitro_SARS-CoV-2_Motif_486]”, the “pull-down binding Z-score” value in data set [1] is -0.688; in data set [2], 0.921; in data set [3], -0.309; with TO-N3 (biotin conjugate) it was -0.158.

With GGUUGUAUGGUACAAGUAACUUGUGGUACAACU, the “pull-down binding Z-score” value was -0.51 in data set [1], -0.264 in data set [2], -0.128 in data set [3] and -0.61 in the data set on TO-N3 (biotin conjugate).

Turning to “UGUUGGCAUCAUUCUAUUGGAUUUGAUUACGUCUAUAAUCCGUUUAUGAUUGAUGUUCAACA”, the “pull-down binding Z-score” value in data set [1] was -0.515; in data set [2], -0.625; in data set [3], -0.183; with TO-N3 (biotin conjugate), -0.712.

As to “GCAACUUGCUGUUGUUGUUUGUAACAGUUUACUCACACCUUUUGCUCGUUGC”, the “pull-down binding Z-score” value in data set [1] was -0.974; in data set [2], -0.851; in data set [3], -0.429; in the data set on TO-N3 (biotin conjugate), -1.09.

As to CUGUUUUUCAG, the “pull-down binding Z-score” value in data set [1] was -0.739; in data set [2], -1.53; in data set [3] it was -0.661; with TO-N3 (biotin conjugate), -1.23.

As for “GAUGUUCUUGUUAACAACUAAACGAACAAUGUUUGUUUUUCUUGUUUUAUUGCCACUAGUCUCUAGUCAGUGUGUUAAUCUUACAACCAGAACUC [DMSMaPseq_invitro_SARS-CoV-2_Multi_63_ComplexLevel_1]”, the “pull-down binding Z-score” value was 0.637 in data set [1], -0.457 in data set [2], 0.256 in data set [3] and 0.534 with TO-N3 (biotin conjugate).

“UGGGGAUCACAACUCA [IAV_invivo_PB1_2_Motif_11+IAV_invivo_PB1_2_Motif_11]”: the “pull-down binding Z-score” value was 0.479 in data set [1], -0.317 in data set [2], -0.0635 in data set [3] and 0.158 in the data set on TO-N3 (biotin conjugate).

Turning to “GGCAACUAGCACUCUCCAAGGGUGUUCACUUUGUUUGCAACUUGCUGUUGUUGUUUGUAACAGUUUACUCACACCUUUUGCUCGUUGCU [SHAPE_invitro_SARS-CoV-2_Motif_465]”, the “pull-down binding Z-score” value in data set [1] was -0.318; in data set [2], -0.0997; in data set [3], -0.205; in the data set with TO-N3 (biotin conjugate) it was -0.358.

As for “GUGUACCUUCCUUACCCAGAUCCAUCAAGAAUCCUAGGGGCCGGCUGUUUUGUAGAUGAUAUCGUAAAAACAGAUGGUACAC [SHAPE_invivo_SARS-CoV-2_Multi_39_ComplexLevel_1]”, the “pull-down binding Z-score” value was 0.725 in data set [1], 0.318 in data set [2], -0.087 in data set [3] and 0.78 in the data set with TO-N3 (biotin conjugate).

As for “UGCAACGAUACCGAUACAAGCCUCACUCCCUUUCGGAUGGCUUAUUGUUGGCGUUGCA”, the “pull-down binding Z-score” value is -0.475 in data set [1], -0.000368 in data set [2], -0.134 in data set [3] and -0.366 in the data set on TO-N3 (biotin conjugate).

Consider “UGUCUUUCGAUCAAAACCUGGAUUAUCAAAUAGGAUACAUCUGCAGUGGGGUUUUCGGUGACAACCCGCGUCCCGAAGAUGGAACAGGCA”, for which the “pull-down binding Z-score” value in data set [1] was -0.887; in data set [2] it was 0.432; in data set [3] it was -0.424; in the data set on TO-N3 (biotin conjugate), -0.552.

On to “UAUCCAAACGCAAGCUUCGAUAAUUUUAAGUUUGUAUGUGAUA [DMSMaPseq_invitro_SARS-CoV-2_Motif_115]”, for which the “pull-down binding Z-score” value in data set [1] was 0.127; in data set [2] it was -0.609; in data set [3], 0.145; with TO-N3 (biotin conjugate), -0.225.

On to “UAGUUACACGGUGUUUAAACCGUGUUUGUACUA [SHAPE_invivo_SARS-CoV-2_Motif_139]”, for which the “pull-down binding Z-score” value in data set [1] was -0.83; in data set [2] it was -1.11; in data set [3], -0.496; in the data set with TO-N3 (biotin conjugate), -1.15.

With “GUACUUAAUGAGAAGUGC [SHAPE_invivo_SARS-CoV-2_Motif_56]”, the “pull-down binding Z-score” value in data set [1] is -0.216; in data set [2], -0.836; in data set [3], -0.138; with TO-N3 (biotin conjugate), -0.461.

Take “GACAUUUUAUCUUACUAAUGAUGUUUCUUUUUUAGCACAUAUUCAGUGGAUGGUUAUGUU [DMSMaPseq_invitro_SARS-CoV-2_Motif_175]”: the “pull-down binding Z-score” value amounted to 0.0838 in data set [1], 0.0287 in data set [2], 0.317 in data set [3] and 0.455 in the data set on TO-N3 (biotin conjugate).

For the sequence “CUCUGGAACACUUUUACAAGACUUCAGAG [SHAPE_invivo_SARS-CoV-2_Motif_367]”, the “pull-down binding Z-score” value in data set [1] is -0.0115; in data set [2] it was -0.513; in data set [3], -0.651; in the data set with TO-N3 (biotin conjugate) it was -0.338.

As to “GUUCAGAGUUUAUUCUAGUGCGAAUAAUUGCACUUUUGAAUAUGUCUCUCAGC”, the “pull-down binding Z-score” value was -0.177 in data set [1], -0.426 in data set [2], 0.063 in data set [3] and -0.295 with TO-N3 (biotin conjugate).

As to UGACAUUACACCAUGUUCUUUUGGUGGUGUCA, the “pull-down binding Z-score” value in data set [1] was -0.87; in data set [2], -1.47; in data set [3], -0.423; in the data set on TO-N3 (biotin conjugate), -1.29.

“GGUAAUUAUACAGUUUCCUGUUUACCUUUUACAAUUAAUUGCC [SHAPE_invitro_SARS-CoV-2_Motif_513]”: the “pull-down binding Z-score” value in data set [1] was -0.718; in data set [2], -1.1; in data set [3] it was 0.0742; in the data set with TO-N3 (biotin conjugate) it was -1.04.

As to CUAGGUUUUUCUAUGUACUUGG, the “pull-down binding Z-score” value in data set [1] is 1.15; in data set [2], -0.376; in data set [3], 0.313; in the data set on TO-N3 (biotin conjugate), 0.825.

As for “UGAUUUUUGUGGAAAGGGCUAUCAUCUUAUGUCCUUCCCUCAGUCA [SHAPE_invivo_SARS-CoV-2_Motif_462]”, the “pull-down binding Z-score” value in data set [1] was -0.662; in data set [2], -0.49; in data set [3], -0.0472; in the data set on TO-N3 (biotin conjugate), -0.702.

Take GCUUUGAUAUGGAACGUUAAAGAUUUCAUGUCAUUGU: the “pull-down binding Z-score” value is -0.179 in data set [1], -0.395 in data set [2], -0.217 in data set [3] and -0.204 with TO-N3 (biotin conjugate).

As for “UCCCAGUUUUGGGG [IAV_invivo_PB1_2_Motif_27+IAV_invivo_PB1_2_Motif_27]”, the “pull-down binding Z-score” value in data set [1] is -0.953; in data set [2], -1.6; in data set [3], -0.902; in the data set with TO-N3 (biotin conjugate) it was -1.36.

As for “GCAAACAUACAACGUGUUGU [SHAPE_invitro_SARS-CoV-2_Motif_281]”, the “pull-down binding Z-score” value in data set [1] was -0.398; in data set [2] it was -0.671; in data set [3], -0.176; in the data set with TO-N3 (biotin conjugate), -0.622.

For GCUCUACAAGAUGCUUAUUACAGAGC, the “pull-down binding Z-score” value was 1.83 in data set [1], -0.0957 in data set [2], 0.467 in data set [3] and 1.52 with TO-N3 (biotin conjugate).

In the case of “GGUAAAAUUGUUAAUAAUUGGUUGAAGCAGUUAAUUAAAGUUACACUUGUGUUCCUUUUUGUUGCUGCUAUUUUCUAUUUAAUAACACC [DMSMaPseq_invitro_SARS-CoV-2_Motif_156]”, the “pull-down binding Z-score” value in data set [1] is -0.485; in data set [2], -1.04; in data set [3], -0.271; with TO-N3 (biotin conjugate) it was -0.828.

As for “GUGCCAUCAAAUUGGAUGACAAAGAUCCAAAUUUCAAAGAUCAAGUCAUUUUGCUGAAUAAGCAUAUUGACGCAU”, the “pull-down binding Z-score” value was -0.675 in data set [1], -0.159 in data set [2], -0.165 in data set [3] and -0.411 in the data set with TO-N3 (biotin conjugate).

For the sequence “AAUGUUUUAUUCUCUACAGUGUUCCCACUUACAAGUUUUGGACCACUAGUGAGAAAAAUAUU [DMSMaPseq_invitro_SARS-CoV-2_Motif_260]”, the “pull-down binding Z-score” value is -0.786 in data set [1], -0.866 in data set [2], -0.434 in data set [3] and -0.882 with TO-N3 (biotin conjugate).

Take “CCCAUCCGUGGGUGGG [IAV_invivo_NA_6_Motif_4+IAV_invivo_NA_6_Motif_4]”: the “pull-down binding Z-score” value in data set [1] was -0.525; in data set [2], -0.95; in data set [3], -0.239; in the data set on TO-N3 (biotin conjugate) it was -0.897.
